What was measured:
[1] = biological target: the molecule itself; test: SEC
[2] = biological target: the molecule itself; test: AUC

Row | Protein | stoichiometry N [1] | stoichiometry N [2]
1 | regulatory domain of tyrosine hydroxylase lacking the first 64 residues (RDTyrH_(65-159)) (domain or fragment, rat, UniProt P04177 65-159, looked up) PGNPLEAVVFEERDGNAVLNLLFSLRGTKPSSLSRAVKVFETFEAKIHHLETRPAQRPLAGSPHLEYFVRFEVPSGDLAALLSSVRRVSDDVRSA | 2 | –
2 | isolated regulatory domain of tyrosine hydroxylase (RDTyrH, residues 1-159) (domain or fragment, rat, UniProt P04177 1-159, looked up) MPTPSAPSPQPKGFRRAVSEQDAKQAEAVTSPRFIGRRQSLIEDARKEREAAAAAAAAAVASSEPGNPLEAVVFEERDGNAVLNLLFSLRGTKPSSLSRAVKVFETFEAKIHHLETRPAQRPLAGSPHLEYFVRFEVPSGDLAALLSSVRRVSDDVRSA | – | 2

Source: article PMC3951675 (Journal of molecular biology, 2013)
